Reference: PMC9177699, “Dynamic interplay between the periplasmic chaperone SurA and the BAM complex in outer membrane protein folding” (Communications Biology, 2022)
Blank lines part the entries; values can stand above or below the binder they belong to.

What was measured:
SurA-∆P1 = target: T1, SurA-∆P1 (E. coli, UniProt P0ABZ6 21-428, removing residues 172–280); assay: MST; 100 nM Alexa Fluor 488-labelled tOmpA, SurA or SurA domain deletion variant titrated 100 µM-3 nM, 0.8 M urea, 20 mM Tris-HCl, pH 8.0, 25 °C; Hill binding model; apparent Kd; conditions: both partners purified
T1 construct: gene numbering including the signal peptide; source: E. coli BL21(DE3), purified (HisTrap with on-column 6 M Gdn-HCl wash, TEV cleavage, second HisTrap); not shown: His6, N-terminal, cleaved
T1 sequence: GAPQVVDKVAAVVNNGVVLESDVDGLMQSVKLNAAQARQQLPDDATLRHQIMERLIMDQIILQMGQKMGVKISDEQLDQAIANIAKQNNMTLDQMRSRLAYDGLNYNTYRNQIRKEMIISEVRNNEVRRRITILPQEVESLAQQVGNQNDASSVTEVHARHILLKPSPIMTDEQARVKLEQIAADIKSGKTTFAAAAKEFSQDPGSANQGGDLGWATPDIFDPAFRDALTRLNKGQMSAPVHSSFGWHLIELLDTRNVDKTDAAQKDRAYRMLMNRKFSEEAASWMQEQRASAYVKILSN

SurA-∆P2 = target: T2, SurA-∆P2 (E. coli, UniProt P0ABZ6 21-428, removing residues 281–389); assay: as above; conditions: both partners purified
T2 construct: gene numbering including the signal peptide; source: E. coli BL21(DE3), purified (HisTrap with on-column 6 M Gdn-HCl wash, TEV cleavage, second HisTrap); not shown: His6, N-terminal, cleaved
T2 sequence: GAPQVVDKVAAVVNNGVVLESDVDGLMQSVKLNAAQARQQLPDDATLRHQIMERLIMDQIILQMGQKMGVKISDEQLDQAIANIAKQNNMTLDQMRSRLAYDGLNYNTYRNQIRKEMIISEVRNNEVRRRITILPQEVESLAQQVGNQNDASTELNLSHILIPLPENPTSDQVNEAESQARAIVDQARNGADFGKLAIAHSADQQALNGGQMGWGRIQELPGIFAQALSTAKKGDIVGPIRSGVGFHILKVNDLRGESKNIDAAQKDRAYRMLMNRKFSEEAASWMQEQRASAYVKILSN

SurA-core = target: T3, SurA-core (E. coli, UniProt P0ABZ6 21-428, removing residues 172–389); assay: as above; conditions: both partners purified
T3 construct: gene numbering including the signal peptide; source: E. coli BL21(DE3), purified (HisTrap with on-column 6 M Gdn-HCl wash, TEV cleavage, second HisTrap); not shown: His6, N-terminal, cleaved
T3 sequence: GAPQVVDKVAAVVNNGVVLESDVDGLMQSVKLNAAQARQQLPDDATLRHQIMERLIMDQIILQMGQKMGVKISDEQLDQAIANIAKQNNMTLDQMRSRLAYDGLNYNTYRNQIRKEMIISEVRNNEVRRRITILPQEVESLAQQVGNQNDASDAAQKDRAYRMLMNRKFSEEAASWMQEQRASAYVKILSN

SurA-WT = target: T4, SurA-WT (E. coli, UniProt P0ABZ6 21-428); assay: as above; conditions: both partners purified
T4 construct: gene numbering including the signal peptide; also called wild-type SurA; source: E. coli BL21(DE3), purified (HisTrap with on-column 6 M Gdn-HCl wash, TEV cleavage, second HisTrap); not shown: His6, N-terminal, cleaved
T4 sequence: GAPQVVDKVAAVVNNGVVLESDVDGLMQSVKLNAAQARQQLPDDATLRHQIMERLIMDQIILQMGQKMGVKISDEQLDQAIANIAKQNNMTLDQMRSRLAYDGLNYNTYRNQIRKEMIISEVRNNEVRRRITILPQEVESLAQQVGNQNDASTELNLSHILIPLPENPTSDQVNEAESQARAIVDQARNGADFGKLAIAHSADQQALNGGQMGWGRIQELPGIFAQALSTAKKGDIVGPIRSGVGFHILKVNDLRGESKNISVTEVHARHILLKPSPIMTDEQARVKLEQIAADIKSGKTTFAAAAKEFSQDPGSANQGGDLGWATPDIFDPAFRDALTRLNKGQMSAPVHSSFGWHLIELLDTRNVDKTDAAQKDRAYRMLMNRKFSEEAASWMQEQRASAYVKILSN

[1] = target: β-barrel assembly machinery (BAM) complex, BamABCDE (E. coli, UniProt P0A940 21-810; P77774 20-392; P0A903 25-344; P0AC02 20-245; P0A937 20-113); assay: cell-based or functional assay
[2] = target: T5, BamB (as a subunit of the purified BAM complex) (E. coli, UniProt P77774 20-392); assay: HDX-MS; differential HDX; 8 µM BAM with 10 µM SurA-WT or SurA-core, or 8 µM SurA-WT with 10 µM BAM; 0.02% DDM, 10 mM potassium phosphate, pH 8.0; labelling at 4 °C for 0.5, 2, 30, 120 min; conditions: both partners purified
T5 construct: BamB, E. coli, accessory lipoprotein of BAM, expressed from pJH114; Stood in the assays within the whole BAM complex, not alone

Kd (SurA-∆P1): 14.5 µM | Kd (SurA-∆P2): 8.8 µM | Kd (SurA-core): 10.2 µM | Kd (SurA-WT): 3.7 µM
B1: Alexa Fluor 488-labelled tOmpA (domain or fragment)
chain: MCAPKDNTWYTGAKLGWSQYHDTGFINNNGPTHENQLGAGAFGGYQVNPYVGFEMGYDWLGRMPYKGSVENGAYKAQGVQLTAKLGYPITDDLDIYTRLGGMVWRADTKSNVYGKNHDTGVSPVFAGGVEYAITPEIATRLEYQWTNNIGDAHTIGTRPDNGMLSLGVSYRFG
modifications: Alexa Fluor 488 (C5 maleimide) on the added cysteine
notes: N-terminal Met and the Cys residue added immediately following it; unfolded: kept in 8 M urea and diluted to 0.8 M urea for the assay; also called Cys-tOmpA

rate of BAM-catalysed folding of tOmpA into proteoliposomes (cold SDS–PAGE), with SurA-core against SurA-WT [1]: ~3 fold | binding result [2]: binds
B2: SurA-core (SurA 21-428 without residues 172-389, His-tag cleaved) (domain or fragment, E. coli, UniProt P0ABZ6 21-428, looked up)
chain: APQVVDKVAAVVNNGVVLESDVDGLMQSVKLNAAQARQQLPDDATLRHQIMERLIMDQIILQMGQKMGVKISDEQLDQAIANIAKQNNMTLDQMRSRLAYDGLNYNTYRNQIRKEMIISEVRNNEVRRRITILPQEVESLAQQVGNQNDASDAAQKDRAYRMLMNRKFSEEAASWMQEQRASAYVKILSN
notes: numbers are the gene numbering (including the signal peptide); A G of the TEV site probably stays after cleavage (surmised); source: E. coli BL21(DE3), purified (HisTrap, on-column denaturation with 6 M Gdn-HCl, TEV cleavage, second HisTrap); not shown: His6, N-terminal, cleaved
